# Assay results as given in patent publication US20120231467A1.
# Molecular target: Toxin B, native full-length (270 kDa) (Clostridium difficile) (UniProt P18177)
# Experiment: filter
# Settings: 2NapdU at every N (replaces all dT)
# Chain of UniProt P18177 (P18177 2-2366): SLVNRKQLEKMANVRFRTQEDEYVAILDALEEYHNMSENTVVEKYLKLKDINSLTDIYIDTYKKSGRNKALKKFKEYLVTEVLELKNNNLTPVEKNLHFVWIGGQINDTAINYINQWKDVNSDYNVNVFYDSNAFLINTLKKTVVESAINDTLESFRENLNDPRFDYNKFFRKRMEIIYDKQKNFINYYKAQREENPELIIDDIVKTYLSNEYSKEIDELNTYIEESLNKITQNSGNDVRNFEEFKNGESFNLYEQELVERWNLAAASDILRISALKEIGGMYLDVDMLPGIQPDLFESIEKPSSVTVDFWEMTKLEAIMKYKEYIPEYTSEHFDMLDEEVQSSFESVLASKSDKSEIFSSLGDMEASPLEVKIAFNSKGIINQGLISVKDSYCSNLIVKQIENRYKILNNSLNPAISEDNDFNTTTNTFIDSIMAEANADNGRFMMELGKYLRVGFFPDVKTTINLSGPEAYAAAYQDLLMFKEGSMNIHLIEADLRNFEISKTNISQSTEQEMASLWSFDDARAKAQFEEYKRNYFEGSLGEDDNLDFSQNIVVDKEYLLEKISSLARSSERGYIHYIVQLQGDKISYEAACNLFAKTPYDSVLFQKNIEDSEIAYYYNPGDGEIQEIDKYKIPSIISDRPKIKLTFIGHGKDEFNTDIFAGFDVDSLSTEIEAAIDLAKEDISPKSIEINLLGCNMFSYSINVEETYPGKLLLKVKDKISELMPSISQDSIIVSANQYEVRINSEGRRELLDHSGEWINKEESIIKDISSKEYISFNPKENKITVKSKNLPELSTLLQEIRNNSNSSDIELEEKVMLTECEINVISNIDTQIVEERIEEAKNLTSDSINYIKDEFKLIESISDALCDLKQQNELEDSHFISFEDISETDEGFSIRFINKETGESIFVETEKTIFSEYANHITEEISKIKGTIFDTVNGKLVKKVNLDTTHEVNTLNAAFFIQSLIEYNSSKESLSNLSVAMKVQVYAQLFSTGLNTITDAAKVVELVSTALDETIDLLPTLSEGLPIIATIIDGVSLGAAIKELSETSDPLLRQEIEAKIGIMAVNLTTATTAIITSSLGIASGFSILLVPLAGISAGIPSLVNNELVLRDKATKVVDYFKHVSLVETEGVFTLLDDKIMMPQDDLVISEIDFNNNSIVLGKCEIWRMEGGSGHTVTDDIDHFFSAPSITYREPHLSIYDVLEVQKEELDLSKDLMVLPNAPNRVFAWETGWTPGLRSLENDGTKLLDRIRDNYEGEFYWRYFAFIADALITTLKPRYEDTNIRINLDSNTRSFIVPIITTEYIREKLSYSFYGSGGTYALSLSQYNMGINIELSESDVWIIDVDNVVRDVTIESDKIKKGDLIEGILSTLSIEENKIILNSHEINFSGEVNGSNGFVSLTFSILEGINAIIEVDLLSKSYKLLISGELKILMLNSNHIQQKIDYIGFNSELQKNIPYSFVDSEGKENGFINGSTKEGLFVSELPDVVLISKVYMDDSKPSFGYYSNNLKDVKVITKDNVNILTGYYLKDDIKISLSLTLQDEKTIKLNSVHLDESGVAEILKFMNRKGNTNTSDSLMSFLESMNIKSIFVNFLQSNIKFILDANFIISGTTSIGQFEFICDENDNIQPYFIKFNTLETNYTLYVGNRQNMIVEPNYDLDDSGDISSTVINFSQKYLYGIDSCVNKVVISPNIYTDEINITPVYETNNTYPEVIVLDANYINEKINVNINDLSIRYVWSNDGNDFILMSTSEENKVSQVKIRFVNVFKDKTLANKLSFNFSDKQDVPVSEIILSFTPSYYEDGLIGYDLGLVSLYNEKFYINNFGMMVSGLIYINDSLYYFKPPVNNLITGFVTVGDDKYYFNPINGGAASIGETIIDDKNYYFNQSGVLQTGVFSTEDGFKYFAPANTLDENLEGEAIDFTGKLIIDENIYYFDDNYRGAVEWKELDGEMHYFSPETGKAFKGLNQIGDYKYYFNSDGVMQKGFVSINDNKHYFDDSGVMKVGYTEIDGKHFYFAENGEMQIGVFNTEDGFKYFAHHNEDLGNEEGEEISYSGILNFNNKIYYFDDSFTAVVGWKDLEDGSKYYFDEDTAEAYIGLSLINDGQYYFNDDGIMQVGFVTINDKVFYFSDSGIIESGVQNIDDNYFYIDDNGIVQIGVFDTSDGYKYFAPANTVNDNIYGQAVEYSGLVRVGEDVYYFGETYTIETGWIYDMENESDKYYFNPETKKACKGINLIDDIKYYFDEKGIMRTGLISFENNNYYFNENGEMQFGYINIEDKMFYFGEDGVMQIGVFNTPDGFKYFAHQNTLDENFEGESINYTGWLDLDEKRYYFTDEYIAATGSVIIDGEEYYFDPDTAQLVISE
sequence,measurement,value
CNNNNNNACCGCNGCANGACNNNAGCGGCAGNCGNGNGNG [5566-77],Kd,0.23 nM
